B1: Syntaxin-17 (Homo sapiens), P56962 (parent)
chain: MSEDEEKVKLRRLEPAIQKFIKIVIPTDLERLRKHQINIEKYQRCRIWDKLHEEHINAGRTVQQLRSNIREIEKLCLKVRKDDLVLLKRMIDPVKEEASAATAEFLQLHLESVEELKKQFNDEETLLQPPLTRSMTVGGAFHTTEAEASSQSLTQIYALPEIPQDQNAAESWETLEADLIELSQLVTDFSLLVNSQQEKIDSIADHVNSAAVNVEEGTKNLGKAAKYKLAALPVAGALIGGMVGGPIGLLAGFKVAGIAAALGGGVLGFTGGKLIQRKKQKMMEKLTSSCPDLPSQTDKKCS
partner: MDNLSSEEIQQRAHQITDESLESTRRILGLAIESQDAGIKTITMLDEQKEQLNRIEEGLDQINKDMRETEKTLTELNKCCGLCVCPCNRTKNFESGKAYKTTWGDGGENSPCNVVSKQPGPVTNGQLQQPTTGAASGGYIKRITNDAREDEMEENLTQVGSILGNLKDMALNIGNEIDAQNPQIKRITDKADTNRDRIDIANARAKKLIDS
B2: Syntaxin-17 (Homo sapiens), P56962 (parent)
chain: B1 chain

Variants of: B1
Settings: with snp23_human SNAP23, O00161

Row | Variant | effect of a mutation on the interaction
1 | MSEDEEKVKLRRLEPAIQKFIKIVIPTDLERLRKHQINIEKYQRCRIWDKLHEEHINAGRTVQQLRSNIREIEKLCLKVRKDDLVLLKRMIDPVKEEASAATAEFLQLHLESVEELKKQFNDEETLLQPPLTRSMTVGGAFHTTEAEASSQSLTQIYALPEIPQDQNAAESWETLEADLIELSQLVTDFSLLVNSQQEKIDSIADHVNSAAVNVEEGTKNLGKAAKYKLAALPVAGALIGGMVGGPIGLLAGFCVAGIAAALGGGVLGFTGGKLIQRKKQKMMEKLTSSCPDLPSQTDKKCS [K254C] | decreasing interaction strength

Variants of: B2
Settings: with acsl3_human ACSL3, O95573
acsl3_human ACSL3, O95573, sequence (O95573 whole entry): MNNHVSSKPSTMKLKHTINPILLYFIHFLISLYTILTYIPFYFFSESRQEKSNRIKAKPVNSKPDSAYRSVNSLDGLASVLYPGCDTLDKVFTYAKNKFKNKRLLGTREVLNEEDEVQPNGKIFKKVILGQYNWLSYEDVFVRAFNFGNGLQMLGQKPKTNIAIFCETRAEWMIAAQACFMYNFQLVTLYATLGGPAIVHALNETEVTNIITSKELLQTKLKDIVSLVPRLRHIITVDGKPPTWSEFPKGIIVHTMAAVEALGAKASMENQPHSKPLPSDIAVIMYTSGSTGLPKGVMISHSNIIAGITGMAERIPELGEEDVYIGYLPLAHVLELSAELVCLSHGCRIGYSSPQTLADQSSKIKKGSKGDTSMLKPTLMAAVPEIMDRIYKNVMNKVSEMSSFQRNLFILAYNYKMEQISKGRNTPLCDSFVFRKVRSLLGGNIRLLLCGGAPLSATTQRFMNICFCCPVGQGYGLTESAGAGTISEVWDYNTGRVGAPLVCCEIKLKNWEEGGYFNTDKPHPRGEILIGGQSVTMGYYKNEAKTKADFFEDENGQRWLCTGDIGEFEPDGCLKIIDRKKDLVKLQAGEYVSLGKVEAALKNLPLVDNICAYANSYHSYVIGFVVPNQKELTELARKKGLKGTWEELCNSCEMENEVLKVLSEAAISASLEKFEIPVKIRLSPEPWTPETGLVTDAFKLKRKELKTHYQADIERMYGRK

Row | Variant | effect of a mutation on the interaction
2 | MSEDEEKVKLRRLEPAIQKFIKIVIPTDLERLRKHQINIEKYQRCRIWDKLHEEHINAGRTVQQLRSNIREIEKLCLKVRKDDLVLLKRMIDPVKEEASAATAEFLQLHLESVEELKKQFNDEETLLQPPLTRSMTVGGAFHTTEAEASSQSLTQIYALPEIPQDQNAAESWETLEADLIELSQLVTDFSLLVNSQQEKIDSIADHVNSAAVNVEEGTKNLGKAAKYKLAALPVAGALIGGMVGGPIGLLAGFCVAGIAAALGGGVLGFTGGKLIQRKKQKMMEKLTSSCPDLPSQTDKKCS [K254C] | with no effect
